Data taken from patent US20050282743A1, “Molecular interactions in cells” (Arbor Vita Corporation, priority 2001, published 2005).

T1: GST-MINT1 PDZ domain 1 (Mus musculus (Mouse)), B2RUJ5
T1 chain: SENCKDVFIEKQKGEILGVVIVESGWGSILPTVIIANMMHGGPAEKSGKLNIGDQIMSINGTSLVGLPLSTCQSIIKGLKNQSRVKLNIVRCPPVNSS

T2: GST-PTPL1 PDZ domain 4 (Homo sapiens (Human)), Q12923
T2 chain: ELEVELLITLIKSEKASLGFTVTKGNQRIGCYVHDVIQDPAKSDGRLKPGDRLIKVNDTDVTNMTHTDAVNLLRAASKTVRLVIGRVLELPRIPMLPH

T3: GST-ZO-2 PDZ domain 1 (Homo sapiens (Human)), Q9UDY2
T3 chain: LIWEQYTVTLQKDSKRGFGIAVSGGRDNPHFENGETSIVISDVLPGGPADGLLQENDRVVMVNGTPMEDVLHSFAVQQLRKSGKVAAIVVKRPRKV

T4: GST-ZO-2 PDZ domain 2 (Homo sapiens (Human)), Q9UDY2
T4 chain: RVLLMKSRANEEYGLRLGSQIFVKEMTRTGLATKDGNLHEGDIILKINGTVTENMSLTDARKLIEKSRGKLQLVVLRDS

T5: GST-ZO-3 PDZ domain 1
T5 chain: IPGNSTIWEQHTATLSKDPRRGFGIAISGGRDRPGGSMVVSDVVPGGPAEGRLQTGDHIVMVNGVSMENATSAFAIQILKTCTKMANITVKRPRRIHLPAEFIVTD

T6: GST-KIAA0382 PDZ domain 1 (Canis lupus familiaris (Dog) (Canis familiaris)), A0A8I3
T6 chain: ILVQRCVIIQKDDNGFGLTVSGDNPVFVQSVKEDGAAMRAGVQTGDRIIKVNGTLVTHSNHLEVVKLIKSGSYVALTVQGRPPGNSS

T7: GST-DLG1 PDZ domain 2 (Homo sapiens), Q12959
T7 chain: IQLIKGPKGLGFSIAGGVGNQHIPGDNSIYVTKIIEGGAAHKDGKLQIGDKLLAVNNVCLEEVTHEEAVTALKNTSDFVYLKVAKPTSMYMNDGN

T8: GST-INADL PDZ domain 8 (Homo sapiens (Human)), Q8NI35
T8 chain: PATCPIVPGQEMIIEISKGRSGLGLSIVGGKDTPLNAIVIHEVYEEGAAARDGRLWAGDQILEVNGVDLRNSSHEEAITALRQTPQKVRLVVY

T9: GST-INADL PDZ domain 5 (Homo sapiens (Human)), Q8NI35
T9 chain: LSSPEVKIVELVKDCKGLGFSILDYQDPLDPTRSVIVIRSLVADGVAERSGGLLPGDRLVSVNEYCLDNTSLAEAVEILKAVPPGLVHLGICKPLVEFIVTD

T10: GST-Shank 1 PDZ domain 1 (Homo sapiens (Human)), Q9UPX8
T10 chain: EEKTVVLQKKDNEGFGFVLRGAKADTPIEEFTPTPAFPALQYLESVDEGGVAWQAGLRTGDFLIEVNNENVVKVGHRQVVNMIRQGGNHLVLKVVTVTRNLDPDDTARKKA

T11: GST-MINT1 PDZ domains 1, 2, Q02410
T11 chain: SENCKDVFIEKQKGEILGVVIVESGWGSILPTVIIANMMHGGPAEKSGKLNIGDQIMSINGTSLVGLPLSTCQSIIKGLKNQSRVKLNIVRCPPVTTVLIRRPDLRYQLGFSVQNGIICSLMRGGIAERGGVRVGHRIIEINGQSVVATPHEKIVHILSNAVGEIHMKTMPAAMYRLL

T12: GST-ZO-3 PDZ domain 3 (Homo sapiens (Human)), O95049
T12 chain: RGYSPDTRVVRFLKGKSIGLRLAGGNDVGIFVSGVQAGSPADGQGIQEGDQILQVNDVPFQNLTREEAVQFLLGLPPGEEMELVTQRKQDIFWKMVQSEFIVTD

T13: GST-KIAA1634 PDZ domain 2 (Homo sapiens (Human)), Q5TCQ9
T13 chain: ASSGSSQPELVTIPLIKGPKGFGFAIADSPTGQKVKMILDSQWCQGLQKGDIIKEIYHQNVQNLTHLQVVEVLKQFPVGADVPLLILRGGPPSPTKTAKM

T14: GST-ERBIN PDZ domain 1 (Homo sapiens (Human)), Q96RT1
T14 chain: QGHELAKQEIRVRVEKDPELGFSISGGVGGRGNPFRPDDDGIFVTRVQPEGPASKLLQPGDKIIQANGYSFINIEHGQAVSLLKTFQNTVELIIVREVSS


Target: T1, GST-MINT1 PDZ domain 1 (Mus musculus …)
Assay: G' assay
Further: key of the grades not given here.

Classification | Binder
3 A450 class | KTMPAAMYRLLTAQEQPVYI (modifications not checked) [MINT-1]
1 A450 class | HDFRRAFKKILARGDRKRIV (modifications not checked) [alpha-2A Adrenergic receptor]
2 A450 class | ELLQFCRTPNPALKNGQYWV (modifications not checked) [CSPG4 (chondroitin sulfae proteoglycan 4, melanoma-associated)]

Target: T2, GST-PTPL1 PDZ domain 4 (Homo sapiens …)
Assay: G' assay

Classification | Binder
5 A450 class | KTMPAAMYRLLTAQEQPVYI (modifications not checked) [MINT-1]
5 A450 class | ELLQFCRTPNPALKNGQYWV (modifications not checked) [CSPG4 (chondroitin sulfae proteoglycan 4, melanoma-associated)]
1 A450 class | PYSELNYETSHYPASPDSWV (modifications not checked) [catenin - delta 2]

Target: GST-DLG1 PDZ domain 1 (Homo sapiens), Q12959
Assay: G' assay

Classification | Binder
1 A450 class | PYSELNYETSHYPASPDSWV (modifications not checked) [catenin - delta 2]

Target: T3, GST-ZO-2 PDZ domain 1 (Homo sapiens …)
Assay: G' assay

Classification | Binder
5 A450 class | ELLQFCRTPNPALKNGQYWV (modifications not checked) [CSPG4 (chondroitin sulfae proteoglycan 4, melanoma-associated)]

Target: GST-DLG1 PDZ domains 1, 2 (Homo sapiens), Q12959
Assay: G' assay

Classification | Binder
3 A450 class | PYSELNYETSHYPASPDSWV (modifications not checked) [catenin - delta 2]

Target: GST-PSD95 PDZ domain 1 (Homo sapiens)
Assay: G' assay

Classification | Binder
1 A450 class | PYSELNYETSHYPASPDSWV (modifications not checked) [catenin - delta 2]

Target: GST-Atrophin-1 Interacting Protein PDZ domain 1 (Rattus norvegicus (Rat)), O88382
Assay: G' assay

Chain of GST-Atrophin-1 Interacting Protein PDZ domain 1 (Rattus norvegicus (Rat)), O88382 (O88382 408-511): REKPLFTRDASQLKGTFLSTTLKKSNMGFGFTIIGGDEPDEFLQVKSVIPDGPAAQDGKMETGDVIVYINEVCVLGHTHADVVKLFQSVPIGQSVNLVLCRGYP

Classification | Binder
1 A450 class | ELLQFCRTPNPALKNGQYWV (modifications not checked) [CSPG4 (chondroitin sulfae proteoglycan 4, melanoma-associated)]

Target: T4, GST-ZO-2 PDZ domain 2 (Homo sapiens …)
Assay: G' assay

Classification | Binder
2 A450 class | HDFRRAFKKILARGDRKRIV (modifications not checked) [alpha-2A Adrenergic receptor]
1 A450 class | ELLQFCRTPNPALKNGQYWV (modifications not checked) [CSPG4 (chondroitin sulfae proteoglycan 4, melanoma-associated)]

Target: T5, GST-ZO-3 PDZ domain 1
Assay: G' assay

Classification | Binder
2 A450 class | KTMPAAMYRLLTAQEQPVYI (modifications not checked) [MINT-1]
2 A450 class | ELLQFCRTPNPALKNGQYWV (modifications not checked) [CSPG4 (chondroitin sulfae proteoglycan 4, melanoma-associated)]

Target: T6, GST-KIAA0382 PDZ domain 1 (Canis lupus …)
Assay: G' assay

Classification | Binder
1 A450 class | KTMPAAMYRLLTAQEQPVYI (modifications not checked) [MINT-1]
5 A450 class | AWDDSARAAGGQGLHVTAL (modifications not checked) [LPAP]
5 A450 class | PIPAGGCTFSGIFPTLTSPL (modifications not checked) [KIA 1481]

Target: T7, GST-DLG1 PDZ domain 2 (Homo sapiens), …
Assay: G' assay

Classification | Binder
2 A450 class | PYSELNYETSHYPASPDSWV (modifications not checked) [catenin - delta 2]

Target: T8, GST-INADL PDZ domain 8 (Homo sapiens …)
Assay: G' assay

Classification | Binder
1 A450 class | KTMPAAMYRLLTAQEQPVYI (modifications not checked) [MINT-1]
3 A450 class | ELLQFCRTPNPALKNGQYWV (modifications not checked) [CSPG4 (chondroitin sulfae proteoglycan 4, melanoma-associated)]
2 A450 class | PYSELNYETSHYPASPDSWV (modifications not checked) [catenin - delta 2]

Target: T9, GST-INADL PDZ domain 5 (Homo sapiens …)
Assay: G' assay

Classification | Binder
5 A450 class | ELLQFCRTPNPALKNGQYWV (modifications not checked) [CSPG4 (chondroitin sulfae proteoglycan 4, melanoma-associated)]
1 A450 class | PIPAGGCTFSGIFPTLTSPL (modifications not checked) [KIA 1481]
1 A450 class | PYSELNYETSHYPASPDSWV (modifications not checked) [catenin - delta 2]

Target: T10, GST-Shank 1 PDZ domain 1 (Homo sapiens …)
Assay: G' assay

Classification | Binder
3 A450 class | AWDDSARAAGGQGLHVTAL (modifications not checked) [LPAP]
5 A450 class | PIPAGGCTFSGIFPTLTSPL (modifications not checked) [KIA 1481]

Target: T11, GST-MINT1 PDZ domains 1, 2, Q02410
Assay: G' assay

Classification | Binder
5 A450 class | KTMPAAMYRLLTAQEQPVYI (modifications not checked) [MINT-1]
5 A450 class | ELLQFCRTPNPALKNGQYWV (modifications not checked) [CSPG4 (chondroitin sulfae proteoglycan 4, melanoma-associated)]

Further lines, the binder ahead of its results:

Binder | Classification
AWDDSARAAGGQGLHVTAL (modifications not checked) [LPAP] | 1 A450 class
PIPAGGCTFSGIFPTLTSPL (modifications not checked) [KIA 1481] | 3 A450 class
PYSELNYETSHYPASPDSWV (modifications not checked) [catenin - delta 2] | 5 A450 class

Target: T12, GST-ZO-3 PDZ domain 3 (Homo sapiens …)
Assay: G' assay

Classification | Binder
1 A450 class | KTMPAAMYRLLTAQEQPVYI (modifications not checked) [MINT-1]
5 A450 class | ELLQFCRTPNPALKNGQYWV (modifications not checked) [CSPG4 (chondroitin sulfae proteoglycan 4, melanoma-associated)]
3 A450 class | PYSELNYETSHYPASPDSWV (modifications not checked) [catenin - delta 2]

Target: GST-BAI-1 Associated Protein PDZ domain 4 (Homo sapiens (Human)), Q96QZ7
Assay: G' assay

Chain of GST-BAI-1 Associated Protein PDZ domain 4 (Homo sapiens (Human)), Q96QZ7 (Q96QZ7 other isoform, or with tags, fused parts or gaps): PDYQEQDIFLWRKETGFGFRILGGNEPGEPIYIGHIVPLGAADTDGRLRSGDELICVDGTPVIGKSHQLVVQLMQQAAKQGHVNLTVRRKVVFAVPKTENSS

Classification | Binder
1 A450 class | PIPAGGCTFSGIFPTLTSPL (modifications not checked) [KIA 1481]

Target: T13, GST-KIAA1634 PDZ domain 2 (Homo sapiens …)
Assay: G' assay

Classification | Binder
1 A450 class | PIPAGGCTFSGIFPTLTSPL (modifications not checked) [KIA 1481]

Target: T14, GST-ERBIN PDZ domain 1 (Homo sapiens …)
Assay: G' assay

Classification | Binder
3 A450 class | ELLQFCRTPNPALKNGQYWV (modifications not checked) [CSPG4 (chondroitin sulfae proteoglycan 4, melanoma-associated)]
4 A450 class | PYSELNYETSHYPASPDSWV (modifications not checked) [catenin - delta 2]
